We go through nine molecules from PMC9371924, “Exploration of DNA processing features unravels novel properties of ICE conjugation in Gram-positive bacteria”.

Residue numbers refer to the chain shown, from its start.

Data set [1] deals with T1, RelSt3 (MOBT relaxase) (Streptococcus thermophilus (ICESt3)) (UniProt Q935T7).
T1 sequence: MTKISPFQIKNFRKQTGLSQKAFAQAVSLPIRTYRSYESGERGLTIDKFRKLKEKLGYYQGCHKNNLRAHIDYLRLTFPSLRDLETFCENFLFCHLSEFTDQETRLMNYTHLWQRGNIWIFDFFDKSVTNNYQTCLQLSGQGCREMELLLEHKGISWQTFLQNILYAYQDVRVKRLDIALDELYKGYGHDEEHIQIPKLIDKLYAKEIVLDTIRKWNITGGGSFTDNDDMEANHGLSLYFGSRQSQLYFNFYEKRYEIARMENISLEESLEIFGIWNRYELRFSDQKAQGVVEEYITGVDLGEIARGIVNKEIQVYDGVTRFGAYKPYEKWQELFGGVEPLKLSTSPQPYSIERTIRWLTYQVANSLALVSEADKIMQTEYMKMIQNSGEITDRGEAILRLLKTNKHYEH
The experiment in a line: EMSA. As to conditions: PAGE EMSA: 20 mM Tris-HCl (pH not stated), 500 mM NaCl, 100 ug/ml salmon sperm DNA, 0.11 uM DNA, 15 min 37 C, gel run at 4 C; agarose EMSA: 400 ng DNA in ….

Data set [2] addresses T2, RelSt3 (MOBT relaxase) (Streptococcus thermophilus (ICESt3)) (UniProt Q935T7).
T2 sequence: T1 sequence with S28N, G61E, V128A, D190E, D229N, T297N, A324S, E333R
Briefly: EMSA. The following applies: PAGE EMSA: 20 mM Tris-HCl (pH not stated), 500 mM NaCl, 100 ug/ml salmon sperm DNA, 0.11 uM DNA, 15 min 37 C, gel run at 4 C; agarose EMSA: 400 ng DNA in …. The source holds these as a separate data set. (In general: Mobility shift assays separate free from complexed probe on a gel.)

Data set [3] concerns the target T3, RelSt3 (MOBT relaxase) (Streptococcus thermophilus (ICESt3), UniProt Q935T7 1-410).
T3 sequence: T1 sequence
The experiment in a line: EMSA; data not shown; PAGE EMSA: 20 mM Tris-HCl (pH not stated), 500 mM NaCl, 100 ug/ml salmon sperm DNA, 0.11 uM DNA, 15 min 37 C, gel run at 4 C; agarose EMSA: 400 ng DNA in 20 ul, 15 min 37 C. The following applies: protein: recombinant; tags: N-terminal 6xHis-TEV (pSKB3); label: 5' 6-FAM; blunt.

Data set [4] has as its target T3, RelSt3 (MOBT relaxase). The experiment in a line: EMSA; up to 6.4 uM; PAGE EMSA: 20 mM Tris-HCl (pH not stated), 500 mM NaCl, 100 ug/ml salmon sperm DNA, 0.11 uM DNA, 15 min 37 C, gel run at 4 C; agarose EMSA: 400 ng DNA in 20 ul, 15 min 37 C. As to conditions: protein: recombinant; tags: N-terminal 6xHis-TEV (pSKB3); label: 5' 6-FAM; blunt.
Data set [5] concerns the target T4, RelSt3 R32A-R35A (Streptococcus thermophilus (ICESt3), UniProt Q935T7 1-410, R32A;R35A).
T4 sequence: T1 sequence with R32A, R35A
Described as above. The following applies: protein: recombinant; tags: N-terminal 6xHis-TEV (pSKB3); label: 5' 6-FAM; blunt; possible cruciform.

The target in data set [6] is T5, RelSt3(64-410), HTH deleted (Streptococcus thermophilus (ICESt3), UniProt Q935T7 64-410).
T5 sequence: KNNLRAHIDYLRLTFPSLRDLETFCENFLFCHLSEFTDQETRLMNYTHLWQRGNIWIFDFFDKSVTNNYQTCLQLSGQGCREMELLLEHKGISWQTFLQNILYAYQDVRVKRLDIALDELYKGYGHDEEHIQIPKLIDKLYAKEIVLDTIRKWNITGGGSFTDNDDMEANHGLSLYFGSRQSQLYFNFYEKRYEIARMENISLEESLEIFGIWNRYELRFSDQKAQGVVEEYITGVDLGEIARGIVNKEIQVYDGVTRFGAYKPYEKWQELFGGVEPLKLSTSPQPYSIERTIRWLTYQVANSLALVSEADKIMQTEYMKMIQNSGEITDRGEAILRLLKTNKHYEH
The experiment in a line: EMSA; up to 1.75 uM; PAGE EMSA: 20 mM Tris-HCl (pH not stated), 500 mM NaCl, 100 ug/ml salmon sperm DNA, 0.11 uM DNA, 15 min 37 C, gel run at 4 C; agarose EMSA: 400 ng DNA in 20 ul, 15 min 37 C. The following applies: protein: recombinant; tags: N-terminal 6xHis-TEV (pSKB3); label: 5' 6-FAM; blunt; possible cruciform.

The target of data set [7] is T3, RelSt3 (MOBT relaxase). Briefly: EMSA; apparent Kd; PAGE EMSA: 20 mM Tris-HCl (pH not stated), 500 mM NaCl, 100 ug/ml salmon sperm DNA, 0.11 uM DNA, 15 min 37 C, gel run at 4 C; agarose EMSA: 400 ng DNA in 20 ul, 15 min 37 C. As to conditions: protein: recombinant; tags: N-terminal 6xHis-TEV (pSKB3); label: 5' 6-FAM; blunt; possible cruciform.
In data set [8] the target is T3, RelSt3 (MOBT relaxase). The experiment in a line: EMSA; PAGE EMSA: 20 mM Tris-HCl (pH not stated), 500 mM NaCl, 100 ug/ml salmon sperm DNA, 0.11 uM DNA, 15 min 37 C, gel run at 4 C; agarose EMSA: 400 ng DNA in 20 ul, 15 min 37 C. As to conditions: protein: recombinant, tags: N-terminal 6xHis-TEV (pSKB3), label: 5' 6-FAM, blunt.

In the case of “GAGACTTCAACCCCCGATTTCTAATAGGGGGGTTACATTTTCAAGATTTAGAAAGTGTGTCACTTTGGTCCAAAAAGTGTGTCACTTAGTCAAAAGGAG / CTCCTTTTGACTAAGTGACACACTTTTTGGACCAAAGTGACACACTTTCTAAATCTTGA [ori50 (ss nic region + ds IR2)]”, the Kd in data set [1] is 3.2 µM.

Consider “AAAAAGAATTCTGTTCATCATGGGCTAGGACAAGGGCAAGGACAAGCCTGACCACAGGTCAGGCGCAGACCGTAGCCCGAAGTTCCTAGGCCATGATGAGACTTCAACCCCCGATTTCTAATAGGGGGGTTACATTTGGCCAAAGTGCCACGTCCACCCCTCCTCATTCCTTGTGGGAGTTGGGATTTCAAGATTTAGAAAGTGTGTCACTTTGGTCCAAAAAGTGTGTCACTTAGTCAAAAGGAGGTGTTCCCATGAATGACTAAAATAAGTCCCTTTCAGATCAAGGGCCCTTTTT (double strand) [oriT1 PCR product]”, for which the binding result in data set [2] is reported as “binds”.

B1: ori47 (IR1-IR2 spacer) (dsDNA)
DNA 1: ACATTTGGCCAAAGTGCCACGTCCACCCCTCCTCATTCCTTGTGGGAGTTGGGATTTCAAGATTTAGA
DNA 2: TCTAAATCTTGAAATCCCAACTCCCACAAGGAATGAGGAGGGGTGGACGTGGCACTTTGGCCAAATGT
In the case of B1, in data set [3], the binding result is “no binding”.

B2: non-specific dsDNA (dsDNA)
DNA 1: CTTACCGATAAGAACTTACCGCTCCTATGAATCTGGGGAAAGAGGTCTGACCATTGACAAGTTTCGAAAACTCAAAGAAAAGC
DNA 2: GCTTTTCTTTGAGTTTTCGAAACTTGTCAATGGTCAGACCTCTTTCCCCAGATTCATAGGAGCGGTAAGTTCTTATCGGTAAG
As for B2, the binding result in data set [4] was “no binding”.

B3: ori41 (ori41WT) dsDNA, full IR2 (dsDNA)
DNA 1: TCAAGATTTAGAAAGTGTGTCACTTTGGTCCAAAAAGTGTGTCACTTAGTCAAAAGGAG
DNA 2: CTCCTTTTGACTAAGTGACACACTTTTTGGACCAAAGTGACACACTTTCTAAATCTTGA
In the case of B3, the binding result in data set [5] and in data set [6] was “no binding” each time. For the same molecule, in data set [7], the Kd is roughly 1.6 µM.

B4: ori41M11 (IR2 replaced by IR of same length and GC%) (dsDNA)
DNA 1: TCAAGATTTAGACGATACGCTATCGTGGTCCAAACGATACGCTATCGAGTCAAAAGGAG
DNA 2: CTCCTTTTGACTCGATAGCGTATCGTTTGGACCACGATAGCGTATCGTCTAAATCTTGA
In the case of B4, the binding result in data set [8] (possible hairpin) is reported as “no binding”.

B5: ori41M5 (IR2a mutated) (dsDNA)
DNA 1: TCAAGATTTAGACGATACGCTGACGTGGTCCAAAAAGTGTGTCACTTAGTCAAAAGGAG
DNA 2: CTCCTTTTGACTAAGTGACACACTTTTTGGACCACGTCAGCGTATCGTCTAAATCTTGA
In the case of B5, in data set [8], the binding result is given as “no binding”.

B6: ori46 (IR1, nic site) (dsDNA)
DNA 1: GAGACTTCAACCCCCGATTTCTAATAGGGGGGTTACAT
DNA 2: ATGTAACCCCCCTATTAGAAATCGGGGGTTGAAGTCTC
With B6, the binding result in data set [4] is listed as “no binding”.

B7: ori41M6 (IR2b mutated) (dsDNA)
DNA 1: TCAAGATTTAGAAAGTGTGTCACTTTGGTCCAAACGATACGCTGACGAGTCAAAAGGAG
DNA 2: CTCCTTTTGACTCGTCAGCGTATCGTTTGGACCAAAGTGACACACTTTCTAAATCTTGA
With B7, in data set [8], the binding result is given as “no binding”.
